Where two headings read alike, the source gives them in different places.
Columns and labels:
[1] = biological target: T1, human D2H transporter receptor domain, amino acid residues 387-685, His-tag fusion protein (human, UniProt Q07837 387-685); assay: phage ELISA, coated D2H domain
T1 construct: Expressed as His-tag fusion, purified under denaturing conditions, coated on plates; not shown: poly-histidine tag (pET His-tag) at the NH2-terminal end
T1 sequence: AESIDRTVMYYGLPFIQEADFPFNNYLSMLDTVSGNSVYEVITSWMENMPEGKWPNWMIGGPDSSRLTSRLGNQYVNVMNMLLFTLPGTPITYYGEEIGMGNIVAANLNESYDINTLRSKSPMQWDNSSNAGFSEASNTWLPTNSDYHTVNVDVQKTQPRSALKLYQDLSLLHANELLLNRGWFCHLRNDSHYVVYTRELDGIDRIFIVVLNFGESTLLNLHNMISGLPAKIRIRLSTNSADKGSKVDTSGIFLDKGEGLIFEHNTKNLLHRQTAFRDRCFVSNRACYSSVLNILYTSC
Experimental: (§1) 6.6. Receptor ELISA Procedure 96 well plates were coated overnight with GIT receptor, BSA and, optionally, IDE (insulin degrading enzyme, an irrelevant His-fusion protein) or hTF. The plates were blocked for one hour with 0.5% BSA-PBS. After clarification, the amplified phage were diluted 1:100 in 1% BSA plus 0.05% Tween 20 in PBS and added to the plates. Following incubation of the plates on a rotator for 1 to 2 hours, the plates were washed 5 times with 1% BSA plus 0.05% Tween 20 in PBS. […] After the plates were washed 5 times, as described above, TMB substrate was added to the wells. The plates were read at 650 nm absorbance.

[2] = biological target: T1, human D2H transporter receptor domain, …; assay: phage ELISA, OD on D2H over OD on BSA
Experimental: as §1

[3] = biological target: T2, human sucrase-isomaltase complex (hSI) receptor domain, amino acid residues 272-667, His-tag fusion protein (human, UniProt P14410 272-667); assay: phage ELISA, coated hSI domain
T2 construct: Expressed as His-tag fusion, purified under denaturing conditions (urea or guanidine HCl), coated on plates; also called hS1 receptor domain; not shown: poly-histidine tag (pET His-tag) at the NH2-terminal end

[4] = biological target: T2, human sucrase-isomaltase complex (hSI) …; assay: phage ELISA, OD on hSI over OD on BSA
[5] = biological target: T3, human PEPT1 (hPEPT1) receptor domain, amino acid residues 391-571, His-tag fusion protein (human, UniProt P46059 391-571); assay: phage ELISA, OD on hPEPT1 over OD on BSA
T3 construct: Expressed as His-tag fusion, purified under denaturing conditions, coated on plates; not shown: poly-histidine tag (pET His-tag) at the NH2-terminal end
T3 sequence: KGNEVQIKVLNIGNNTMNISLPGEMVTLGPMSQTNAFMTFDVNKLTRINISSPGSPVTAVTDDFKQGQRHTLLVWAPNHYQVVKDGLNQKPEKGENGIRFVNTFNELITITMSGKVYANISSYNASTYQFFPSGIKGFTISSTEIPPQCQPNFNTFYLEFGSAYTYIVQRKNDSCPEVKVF
Experimental: as §1

[6] = biological target: T3, human PEPT1 (hPEPT1) receptor domain, …; assay: phage ELISA, coated hPEPT1 domain
Experimental: as §1

[7] = biological target: T1, human D2H transporter receptor domain, …; assay: phage ELISA, coated D2H domain; remark: listed apart in the source
Experimental: as §1
(§2) Binding to fixed Caco-2 cells, D2H and BSA was examined.

[8] = biological target: T1, human D2H transporter receptor domain, …; assay: phage ELISA, OD on D2H over OD on BSA; remark: listed apart in the source
Experimental: as §1, §2

T2 sequence (P14410 272-667, one chain of several): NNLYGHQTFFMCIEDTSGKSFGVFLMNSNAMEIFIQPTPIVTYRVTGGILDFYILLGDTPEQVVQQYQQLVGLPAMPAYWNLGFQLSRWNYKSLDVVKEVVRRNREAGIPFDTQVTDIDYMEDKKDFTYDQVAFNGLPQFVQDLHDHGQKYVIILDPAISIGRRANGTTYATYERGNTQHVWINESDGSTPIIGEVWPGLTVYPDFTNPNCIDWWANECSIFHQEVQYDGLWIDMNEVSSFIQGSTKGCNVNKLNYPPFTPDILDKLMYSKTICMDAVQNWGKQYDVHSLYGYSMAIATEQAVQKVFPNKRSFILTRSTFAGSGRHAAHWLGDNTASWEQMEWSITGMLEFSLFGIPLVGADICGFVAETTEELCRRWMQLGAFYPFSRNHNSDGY

B1: phage DAX15 (peptide)
peptide: SESGRCRSVSRWMTTWQTQKGGCGSNVSRGSPLDPSHQTGHATT
notes: pIII and flanks not included
- OD [1]: 0.391 OD 650 nm
- D2H/BSA [2]: 4 ratio

B2: phage SNi28 (peptide)
peptide: SHSGGMNRAYGDVFRELRDRWNATSHHTRPTPQLPRGPN
notes: pIII and flanks not included
- OD [3]: 0.942 OD 650 nm
- hSI/BSA [4]: 8 ratio

B3: phage PAX45 (peptide)
peptide: SFQVYPDHGLERHALDGTGPLYAMPGRWIRARPQNRDRQ
notes: pIII and flanks not included
- PEPT1/BSA [5]: 5 ratio
- OD [6]: 0.419 OD 650 nm

B4: phage SNi38 (peptide)
peptide: RGAADQRRGWSENLGLPRVGWDAIAHNSYTFTSRRPRPP
notes: pIII and flanks not included
- OD [3]: 0.466 OD 650 nm
- hSI/BSA [4]: 6 ratio

B5: phage DAB10 (peptide)
peptide: SKSGEGGDSSRGETGWARVRSHAMTAGRFRWYNQLPSDR
notes: pIII and flanks not included
- OD [1]: 0.644 OD 650 nm
- D2H/BSA [2]: 4 ratio

B6: phage PAX16 (peptide)
peptide: SWTRWGKHTHGGFVNKSPPGKNATSPYTDAQLPSDQGPP
notes: pIII and flanks not included
- PEPT1/BSA [5]: 4 ratio
- OD [6]: 0.648 OD 650 nm

B7: phage SNi45 (peptide)
peptide: SGGEVSSWGRVNDLCARVSWTGCGTARSARTDNKGFLPKHSSLR
notes: pIII and flanks not included
- OD [3]: 0.518 OD 650 nm
- hSI/BSA [4]: 9 ratio

B8: phage P31 (peptide)
peptide: SARDSGPAEDGSRAVRLNGVENANTRKSSRSNPRGRRHP
notes: pIII and flanks not included
- PEPT1/BSA [5]: 11 ratio
- OD [6]: 0.807 OD 650 nm

B9: phage PAX38 (peptide)
peptide: SSKVSSPRDPTVPRKGGNVDYGCGHRSSARMPTSALSSITKCYT
notes: pIII and flanks not included
- PEPT1/BSA [5]: 5 ratio
- OD [6]: 0.292 OD 650 nm

B10: phage PAX43 (peptide)
peptide: RWCEKHKFTAARCSAGAGFERDASRPPQPAHRDNTNRNA
notes: pIII and flanks not included
- PEPT1/BSA [5]: 5 ratio
- OD [6]: 0.345 OD 650 nm

B11: phage DCX26 (peptide)
peptide: SGRTTSEISGLWGWGDDRSGYGWGNTLRPNYIPYRQATNRHRYT
notes: pIII and flanks not included
- OD [7]: 0.956 OD 650 nm
- D2H/BSA [8]: 4 ratio

B12: phage PAX9 (peptide)
peptide: RWPSVGYKGNGSDTIDVHSNDASTKRSLIYNHRRPLFP
notes: pIII and flanks not included
- PEPT1/BSA [5]: 4 ratio
- OD [6]: 0.312 OD 650 nm

B13: phage PAX35 (peptide)
peptide: RSITDGGINEVDLSSVSNVLENANSHRAYRKHRPTLKRP
notes: pIII and flanks not included
- PEPT1/BSA [5]: 7 ratio
- OD [6]: 0.474 OD 650 nm

B14: phage DAB18 (peptide)
peptide: RSSANNCEWKSDWMRRACIARYANSSGPARAVDTKAAP
notes: pIII and flanks not included
- OD [1]: 0.467 OD 650 nm
- D2H/BSA [2]: 5 ratio

B15: phage DAB24 (peptide)
peptide: SKWSWSSRWGSPQDKVEKTRAGCGGSPSSTNCHPYTFAPPPQAG
notes: pIII and flanks not included
- OD [1]: 1.8 OD 650 nm
- D2H/BSA [2]: 4 ratio

B16: phage DCX8 (peptide)
peptide: RYKHDIGCDAGVDKKSSSVRGGCGAHSSPPRAGRGPRGTMVSRL
notes: pIII and flanks not included
- OD [7]: 0.163 OD 650 nm
- D2H/BSA [8]: 3 ratio

B17: phage PAX17 (peptide)
peptide: SQVDSFRNSFRWYEPSRALCHGCGKRDTSTTRIHNSPSDSYPTR
notes: pIII and flanks not included
- PEPT1/BSA [5]: 5 ratio
- OD [6]: 0.514 OD 650 nm

B18: phage PAX18 (peptide)
peptide: SFLRFQSPRFEDYSRTISRLRNATNPSNVSDAHNNRALA
notes: pIII and flanks not included
- PEPT1/BSA [5]: 5 ratio
- OD [6]: 0.416 OD 650 nm

B19: phage P90 (peptide)
peptide: SSADAEKCAGSLLWWGRQNNSGCGSPTKKHLKHRNRSQTSSSSH
notes: pIII and flanks not included
- PEPT1/BSA [5]: 9 ratio
- OD [6]: 1.12 OD 650 nm

B20: phage PAX46 (peptide)
peptide: SRCTDNEQCPDTGTRSRSVSNARYFSSRLLKTHAPHRP
notes: pIII and flanks not included
- PEPT1/BSA [5]: 6 ratio
- OD [6]: 0.429 OD 650 nm

B21: phage PAX14 (peptide)
peptide: RTFENDGLGVGRSIQKKSDRWYASHNIRSHFASMSPAGK
notes: pIII and flanks not included
- PEPT1/BSA [5]: 8 ratio
- OD [6]: 1.1 OD 650 nm

B22: phage SNiAX6 (peptide)
peptide: RTTTAKGCLLGSFGVLSGCSFTPTSPPPHLGYPPHSVN
notes: pIII and flanks not included
- OD [3]: 0.369 OD 650 nm
- hSI/BSA [4]: 7 ratio

B23: phage DCX11 (peptide)
peptide: SQGSKQCMQYRTGRLTVGSEYGCGMNPARHATPAYPARLLPRYR
notes: pIII and flanks not included
- OD [7]: 0.222 OD 650 nm
- D2H/BSA [8]: 3 ratio

B24: phage DAX27 (peptide)
peptide: SHPWYRHWNHGDFSGSGQSRHTPPESPHPGRPNATI
notes: pIII and flanks not included
- OD [1]: 1.58 OD 650 nm
- D2H/BSA [2]: 4 ratio

B25: phage SNiAX8 (peptide)
peptide: SPKLSSVGVMTKVTELPTEGPNAISIPISATLGPRNPLR
notes: pIII and flanks not included
- OD [3]: 0.342 OD 650 nm
- hSI/BSA [4]: 5 ratio

B26: phage SNi10 (peptide)
peptide: RVGQCTDSDVRRPWARSCAHQGCGAGTRNSHGCITRPLRQASAH
notes: pIII and flanks not included
- OD [3]: 0.57 OD 650 nm
- hSI/BSA [4]: 11 ratio

B27: phage DAB3 (peptide)
peptide: RWCGAELCNSVTKKFRPGWRDHANPSTHHRTPPPSQSSP
notes: pIII and flanks not included
- OD [1]: 0.406 OD 650 nm
- D2H/BSA [2]: 6 ratio

B28: phage DAB7 (peptide)
peptide: RWCGADDPCGASRWRGGNSLFGCGLRCSAAQSTPSGRIHSTSTS
notes: pIII and flanks not included
- OD [1]: 0.702 OD 650 nm
- D2H/BSA [2]: 8 ratio

B29: phage S22 (peptide)
peptide: SSSSDWGGVPGKVVRERFKGRGCGISITSVLTGKPNPCPEPKAA
notes: pIII and flanks not included
- OD [3]: 0.399 OD 650 nm
- hSI/BSA [4]: 7 ratio

B30: phage PAX15 (peptide)
peptide: SYCRVKGGGEGGHTDSNLARSGCGKVARTSRLQHINPRATPPSR
notes: pIII and flanks not included
- PEPT1/BSA [5]: 4 ratio
- OD [6]: 0.301 OD 650 nm

B31: phage SNi34 (peptide)
peptide: SPCGGSWGRFMQGGLFGGRTDGCGAHRNRTSASLEPPSSDY
notes: pIII and flanks not included
- OD [3]: 0.761 OD 650 nm
- hSI/BSA [4]: 7 ratio

B32: phage PAX40 (peptide)
peptide: RASTQGGRGVAPEFGASVLGRGCGSATYYTNSTSCKDAMGHNYS
notes: pIII and flanks not included
- PEPT1/BSA [5]: 6 ratio
- OD [6]: 0.461 OD 650 nm

B33: phage SNiAX2 (peptide)
peptide: SDSDGDHYGLRGGVRCSLRDRGCGLALSTVHAGPPSFYPKLSSP
notes: pIII and flanks not included
- OD [3]: 0.383 OD 650 nm
- hSI/BSA [4]: 6 ratio

B34: phage DAX23 (peptide)
peptide: REWRFAGPPLDLWAGPSLPSFNASSHPRALRTYWSQRPR
notes: pIII and flanks not included
- OD [1]: 0.698 OD 650 nm
- D2H/BSA [2]: 5 ratio

B35: phage DAB30 (peptide)
peptide: SGFWEFSRGLWDGENRKSVRSGCGFRGSSAQGPCPVTPATIDKH
notes: pIII and flanks not included
- OD [1]: 0.704 OD 650 nm
- D2H/BSA [2]: 6 ratio

B36: phage DAX24 (peptide)
peptide: RMEDIKNSGWRDSCRWGDLRPGCGSRQWYPSNMRSSRDYPAGGH
notes: pIII and flanks not included
- OD [1]: 0.591 OD 650 nm
- D2H/BSA [2]: 5 ratio

B37: phage S15 (peptide)
peptide: RSGAYESPDGRGGRSYVGGGGGCGNIGRKHNLWGLRTASPACWD
notes: pIII and flanks not included
- OD [3]: 0.478 OD 650 nm
- hSI/BSA [4]: 9 ratio

B38: phage 5PAX12 (peptide)
peptide: RGWKCEGSQAAYGDKDIGRSRGCGSITKNNTNHAHPSHGAVAKI
notes: pIII and flanks not included
- PEPT1/BSA [5]: 6 ratio
- OD [6]: 0.227 OD 650 nm

Source: patent US7135457 (CYTOGEN, dated 2006)
